Data reported in article PMC3507621.
Changes are numbered by the printed parent chain. In names and notes the source's numbering stands.

T1: inter-α-trypsin inhibitor (IαI), P19827;P19823
T1 chain 1: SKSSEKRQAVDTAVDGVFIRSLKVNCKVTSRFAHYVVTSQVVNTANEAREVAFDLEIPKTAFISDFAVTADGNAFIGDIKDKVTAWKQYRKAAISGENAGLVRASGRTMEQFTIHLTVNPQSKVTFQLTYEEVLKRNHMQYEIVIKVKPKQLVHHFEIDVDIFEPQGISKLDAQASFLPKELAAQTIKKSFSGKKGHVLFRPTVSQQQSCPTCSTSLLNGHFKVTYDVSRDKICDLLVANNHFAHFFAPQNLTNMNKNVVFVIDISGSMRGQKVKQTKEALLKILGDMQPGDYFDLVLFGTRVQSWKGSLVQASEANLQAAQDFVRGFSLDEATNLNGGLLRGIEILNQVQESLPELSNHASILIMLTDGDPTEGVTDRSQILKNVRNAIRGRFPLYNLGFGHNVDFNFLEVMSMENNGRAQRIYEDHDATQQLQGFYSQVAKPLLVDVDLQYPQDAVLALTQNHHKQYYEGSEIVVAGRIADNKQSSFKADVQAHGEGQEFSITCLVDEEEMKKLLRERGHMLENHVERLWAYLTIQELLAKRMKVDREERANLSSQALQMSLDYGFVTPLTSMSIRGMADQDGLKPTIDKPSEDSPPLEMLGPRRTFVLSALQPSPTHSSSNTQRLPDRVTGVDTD
T1 chain 2: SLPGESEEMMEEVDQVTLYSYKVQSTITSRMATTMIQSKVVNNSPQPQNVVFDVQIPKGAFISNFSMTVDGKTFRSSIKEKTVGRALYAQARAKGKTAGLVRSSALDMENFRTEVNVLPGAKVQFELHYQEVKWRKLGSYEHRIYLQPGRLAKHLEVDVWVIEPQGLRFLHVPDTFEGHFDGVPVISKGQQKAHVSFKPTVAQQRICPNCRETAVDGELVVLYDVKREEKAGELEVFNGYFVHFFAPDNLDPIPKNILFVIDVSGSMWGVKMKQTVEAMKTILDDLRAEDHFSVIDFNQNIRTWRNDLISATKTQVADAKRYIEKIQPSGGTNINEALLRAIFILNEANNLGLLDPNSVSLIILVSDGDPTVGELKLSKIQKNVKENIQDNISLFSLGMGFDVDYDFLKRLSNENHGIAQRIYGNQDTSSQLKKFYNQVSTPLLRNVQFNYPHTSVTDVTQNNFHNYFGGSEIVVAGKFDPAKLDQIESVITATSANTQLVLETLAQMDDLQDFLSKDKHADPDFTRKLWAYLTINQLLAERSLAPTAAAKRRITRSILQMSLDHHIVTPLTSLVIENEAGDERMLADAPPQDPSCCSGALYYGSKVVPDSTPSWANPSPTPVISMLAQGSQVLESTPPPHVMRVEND
T1 chain 3: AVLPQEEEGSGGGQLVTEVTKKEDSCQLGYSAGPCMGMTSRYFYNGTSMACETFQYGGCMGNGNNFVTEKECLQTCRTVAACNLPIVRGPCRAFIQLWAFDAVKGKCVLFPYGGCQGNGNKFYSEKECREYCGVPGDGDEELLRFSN

B1: wild type recombinant N-terminal region of PTX3 (N_PTX3), P26022 C47S; C49S; C103S (protein)
chain: ENSDDYDLMYVNLDNEIDNGLHPTEDPTPSASGQEHSEWDKLFIMLENSQMRERMLLQATDDVLRGELQRLREELGRLAESLARPSAPGAPAEARLTSALDELLQATRDAGRRLARMEGAEAQRPEEAGRALAAVLEELRQTRADLHAVQGWATG
B2: wild type recombinant N-terminal region of PTX3 (N_PTX3), P26022 C47S; C49S (protein)
chain: B1 chain with S86C
B3: wild type recombinant N-terminal region of PTX3 (N_PTX3), P26022 C103S (protein)
chain: B1 chain with S30C, S32C

Columns and labels:
[1] = biological target: T1, inter-α-trypsin inhibitor (IαI), …; assay: competition ELISA (bPTX3 detected with HRP-conjugated streptavidin); conditions: chain shown with the change, wells coated with IαI, read off a plot
[2] = biological target: T1, inter-α-trypsin inhibitor (IαI), …; assay: ELISA; conditions: chain shown with the change, pH 7.4, PBS with Ca2+ and Mg2+, read off a plot
[3] = IαI 100 nM (est. from x axis), parent: est. 2.6
[4] = IαI about 1.7 nM (est. from x axis), parent: est. 1.0
[5] = IαI about 6 nM (est. from x axis), parent: est. 2.2
[6] = IαI about 46 nM (est. from x axis), parent: est. 2.7
[7] = IαI about 13 nM (est. from x axis), parent: est. 2.5

| Binder | other: bPTX3 bound to IαI (% of bPTX3 binding in the absence of competitors) ([1]; competitor about 0.24 nM (est. from x axis), parent: est. 99) [%] | other: bPTX3 bound to IαI (% of bPTX3 binding in the absence of competitors) ([1]; competitor about 2.5 nM (est. from x axis), parent: est. 98) [%] | other: bPTX3 bound to IαI (% of bPTX3 binding in the absence of competitors) ([1]; competitor about 24 nM (est. from x axis), parent: est. 80) [%] | other: bPTX3 bound to IαI (% of bPTX3 binding in the absence of competitors) ([1]; competitor about 240 nM (est. from x axis), parent: est. 38) [%] | other: bPTX3 bound to IαI (% of bPTX3 binding in the absence of competitors) ([1]; competitor about 2400 nM (est. from x axis), parent: est. 11) [%] | response [2, 3] | response [2, 4] | response [2, 5] | response [2, 6] | response [2, 7] |
| --- | --- | --- | --- | --- | --- | --- | --- | --- | --- | --- |
| B1 | 99 | 96 | 82 | 59 | 30 | 2.6 O.D. (450nm) | 0.45 O.D. (450nm) | 1.3 O.D. (450nm) | 2.5 O.D. (450nm) | – |
| B2 | – | – | – | – | – | 2.6 O.D. (450nm) | 0.24 O.D. (450nm) | 0.86 O.D. (450nm) | 2.4 O.D. (450nm) | 1.4 O.D. (450nm) |
| B3 | – | – | – | – | – | 2.6 O.D. (450nm) | 0.28 O.D. (450nm) | 1.1 O.D. (450nm) | 2.5 O.D. (450nm) | 1.7 O.D. (450nm) |
